From article PMC8978259, “Structural and biochemical insights into lipid transport by VPS13 proteins” (The Journal of Cell Biology, 2022)

How the values were obtained:
[1] = target: PxP(Mcp1ct)-VABct(1,944-2,635)-His6 (C. thermophilum); test: negative stain EM; class averages of purified constructs; monomer or dimer
[2] = target: PxP(Mcp1ct)-VABct(1,944-2,635)-His6 (C. thermophilum); test: SEC; Superdex 200 gel filtration in buffer A (20 mM Hepes pH 7.8, 500 mM NaCl, 1 mM TCEP, 10% glycerol); monomer or dimer read from the elution profile
[3] = target: the molecule itself; test: as above

PxP(Mcp1ct)-VABct(1,944-2,635)-His6
stoichiometry N [1]: 2
stoichiometry N [2]: 2

B1: PxP(Ypt35sc)-VABsc(1,869-2,545)-His6 (other, S. cerevisiae, UniProt P38815 2-22, looked up)
chain: SDKISFLPPEPIQLLDEDSTEKPYQLVNDTELDFDVWIQDKTTEDNKNEVVLLKANTSLPWEFEDWRSIREKLDIDKSKNILGVCVSGQNYKTIMNIDATTEGENLHVLSPPRNNVHNRIVCEARCDENNVKIITFRSTLVIENTTSTEIELLVDSKDPNKPSLKYAIKPHQSKSVPVEYAYDSDIRIRPASEDIYDWSQQTLSWKSLLSNQMSIFCSSKEDSNQRFHFEIGAKYDEREPLAKIFPHMKIVVSASMTIENLLPADINFSIFDKREEKRTDFLKTGESMEVHHISLDSFLLMSVQPLQDEASASKPSIVNTPHKSPLNPEDSLSLTLSGGQNLLLKLDYKNIDGTRSKVIRIYSPYIIMNSTDRELYIQSSLLNIAQSKILLENEKRYTIPKMFSFDKEDDKSNRARIRFKESEWSSKLSFDAIGQSFDASVRIKNKEQESNLGINISEGKGKYLLSKVIEIAPRYIISNTLDIPIEVCETGSMDVQQIESNITKPLYRMRNIVDKQLVLKFLGGDSNWSQPFFIKNVGVTYLKVLKNSRHKLLKIEILLDKATIFIRIKDGGDRWPFSIRNFSDHDFIFYQRDPRKVSDPYKDDQSNESSSRSFKPIFYRIPSKSIMPYAWDFPTAKEKYLVLESGTRTREVRLAEIGELPPLRLDKRSKDKPAPIVGLHVVADDDMQALVIVNYKAN
notes: Ypt35p of S. cerevisiae, Pro-X-Pro motif, residues 2-22; also called PXP-VABsc; source: E. coli BL21 (DE3), purified (Ni-NTA, Superdex 200)
stoichiometry N [3]: 2

B2: PxP(Mcp1sc)-VABsc(1,869-2,545)-His6 (other, S. cerevisiae, UniProt Q12106 2-20, looked up)
chain: IKLHEVPPEPVDPASLPHDKPYQLVNDTELDFDVWIQDKTTEDNKNEVVLLKANTSLPWEFEDWRSIREKLDIDKSKNILGVCVSGQNYKTIMNIDATTEGENLHVLSPPRNNVHNRIVCEARCDENNVKIITFRSTLVIENTTSTEIELLVDSKDPNKPSLKYAIKPHQSKSVPVEYAYDSDIRIRPASEDIYDWSQQTLSWKSLLSNQMSIFCSSKEDSNQRFHFEIGAKYDEREPLAKIFPHMKIVVSASMTIENLLPADINFSIFDKREEKRTDFLKTGESMEVHHISLDSFLLMSVQPLQDEASASKPSIVNTPHKSPLNPEDSLSLTLSGGQNLLLKLDYKNIDGTRSKVIRIYSPYIIMNSTDRELYIQSSLLNIAQSKILLENEKRYTIPKMFSFDKEDDKSNRARIRFKESEWSSKLSFDAIGQSFDASVRIKNKEQESNLGINISEGKGKYLLSKVIEIAPRYIISNTLDIPIEVCETGSMDVQQIESNITKPLYRMRNIVDKQLVLKFLGGDSNWSQPFFIKNVGVTYLKVLKNSRHKLLKIEILLDKATIFIRIKDGGDRWPFSIRNFSDHDFIFYQRDPRKVSDPYKDDQSNESSSRSFKPIFYRIPSKSIMPYAWDFPTAKEKYLVLESGTRTREVRLAEIGELPPLRLDKRSKDKPAPIVGLHVVADDDMQALVIVNYKAN
notes: Mcp1p of S. cerevisiae, Pro-X-Pro motif, residues 2-20; also called PXP-VABsc; source: E. coli BL21 (DE3), purified (Ni-NTA, Superdex 200)
stoichiometry N [3]: 2

B3: PxP(Spo71sc)-VABsc(1,869-2,545)-His6 (other, S. cerevisiae, UniProt Q03868 380-400, looked up)
chain: SHLPFINILPPWPTELTEEERKPYQLVNDTELDFDVWIQDKTTEDNKNEVVLLKANTSLPWEFEDWRSIREKLDIDKSKNILGVCVSGQNYKTIMNIDATTEGENLHVLSPPRNNVHNRIVCEARCDENNVKIITFRSTLVIENTTSTEIELLVDSKDPNKPSLKYAIKPHQSKSVPVEYAYDSDIRIRPASEDIYDWSQQTLSWKSLLSNQMSIFCSSKEDSNQRFHFEIGAKYDEREPLAKIFPHMKIVVSASMTIENLLPADINFSIFDKREEKRTDFLKTGESMEVHHISLDSFLLMSVQPLQDEASASKPSIVNTPHKSPLNPEDSLSLTLSGGQNLLLKLDYKNIDGTRSKVIRIYSPYIIMNSTDRELYIQSSLLNIAQSKILLENEKRYTIPKMFSFDKEDDKSNRARIRFKESEWSSKLSFDAIGQSFDASVRIKNKEQESNLGINISEGKGKYLLSKVIEIAPRYIISNTLDIPIEVCETGSMDVQQIESNITKPLYRMRNIVDKQLVLKFLGGDSNWSQPFFIKNVGVTYLKVLKNSRHKLLKIEILLDKATIFIRIKDGGDRWPFSIRNFSDHDFIFYQRDPRKVSDPYKDDQSNESSSRSFKPIFYRIPSKSIMPYAWDFPTAKEKYLVLESGTRTREVRLAEIGELPPLRLDKRSKDKPAPIVGLHVVADDDMQALVIVNYKAN
notes: Spo71p of S. cerevisiae, Pro-X-Pro motif, residues 380-400; also called PXP-VABsc; source: E. coli BL21 (DE3), purified (Ni-NTA, Superdex 200)
stoichiometry N [3]: 2
